The results in this text go back to patent publication US20090042805.

One data set deals with T1, Ac-VDVAD-cho.
T1 chain: VDVAD

Another data set deals with T2, Z-VDVAD-FMK.
T2 chain: VDVAD

B1: Human recombinant caspase-2 (protein)
chain: GPVCLQVKPCTPEFYQTHFQLAYRLQSRPRGLALVLSNVHFTGEKELEFRSGGDVDHSTLVTLFKLLGYDVHVLCDQTAQEMQEKLQNFAQLPAHRVTDSCIVALLSHGVEGAIYGVDGKLLQLQEVFQLFDNANCPSLQNKPKMFFIQACRGDETDRGVDQQDGKNHAGSPGCEESDAGKEKLPKMRLPTRSDMICGYACLKGTAAMRNTKRGSWYIEALAQVFSERACDMHVADMLVKVNALIKDREGYAPGTEFHRCKEMSEYCSTLCRHLYLFPGHPPT
In the case of B1, the “in vitro VDVAD-AMC cleavage by recombinant caspase-2” value with Ac-VDVAD-cho is “as efficiently as commercially available caspase-2 reversible (Ac-VDVAD-Cho) or irreversible (Z-VDVAD-FMK) inhibitors”; in the data set with SEQ8 it was “is blocked by SEQ8”; with Z-VDVAD-FMK, “as efficiently as commercially available caspase-2 reversible (Ac-VDVAD-Cho) or irreversible (Z-VDVAD-FMK) inhibitors”.
